Reference: patent US10815297B2, “Antagonists of IL17C for the treatment of inflammatory disorders” (MorphoSys AG, priority 2011, dated 2020)

How the values were obtained:
Assay type in all cases: in vivo
[1] = tested on: mouse CIA model (DBA1/J mice); assay: Mouse collagen induced arthritis (CIA) model, therapeutic protocol; conditions: 10 mg/kg, 3x week, i.p., day 31 to day 46
Method: (§1) DBA1/J mice (male, 6-7 weeks old, approx 20 gram) were obtained from Centre d'Elevage Regional Janvier (Laval, France). Mice were kept on a 12 hr light/dark cycle (0700-1900). Temperature was maintained at 22° C., and food and water were provided ad libitum.
One day before the experiment, CII solution (2 mg/mL) was prepared with 0.05 M acetic acid and stored at 4° C. Just before the immunization, equal volumes of adjuvant […] and CII were mixed by a homogenizer in a pre-cooled glass bottle in an ice water bath. Extra adjuvant and prolonged homogenization may be required if an emulsion is not formed. 0.1 mL of the emulsion was injected intradermally at the base of the tail of each mouse on day 1, a second booster intradermal injection (CII solution at 2 mg/mL in […] 0.1 mLemulsion) was performed on day 21. This immunization method was modified from published methods (Brand et al, 2007, Collagen-induced arthritis. Nature Protocols; vol 2 (5): 1269-1275; Lin et al., 2007, Anti-rheumatic activities of histone deacetylase (HDAC) inhibitors in vivo in collagen-induced arthritis in rodents. Br J Pharmacol. April; 150 (7):829-31).
The therapeutic effects of the antibodies were tested in the mouse CIA model. Mice were randomly divided into equal groups and each group contained 10 mice. All mice were immunized on day 1 and boosted on day 21. Therapeutic dosing lasted from day 31 to day 46. The negative control group was treated with vehicle (PBS) and the positive control group with Enbrel (10 mg/kg, 3× week, i.p.). An antibody of interest was tested at 10 mg/kg, i.p. 3 times per week.
Anti-IL17C antibodies were administered i.p. three times a week at 10 mg/kg. […]
(§2) Arthritis was scored according to the method of Khachigian 2006 (Collagen antibody-induced arthritis. (2006) Nature Protocols 1, 2512-6), Lin et al 2007 (supra); Nishida et al. 2004 (Histone deacetylase inhibitor suppression of autoantibody-mediated arthritis in mice via regulation of p16INK4a and p21(WAF1/Cip1) expression. Arthritis Rheum. 10: 3365-76); and Brand et al. 2007 (supra). […]

[2] = tested on: BALB/c female mice, LPS-induced acute lung neutrophilia; assay: Intranasal instillation of LPS, mouse model of acute lung neutrophilia; conditions: single treatment 5 mg/kg i.p. 24 hours before LPS instillation; BAL 24 hours after LPS
Method: Two independent studies were conducted with one negative mAb and two positive mAbs in the intranasal instillation of Lipopolysaccharide (LPS) mouse model of acute lung neutrophilia, a model which mimics some relevant aspects of COPD (Chronic Obstructive Pulmonary Disease). The effects were measured by Broncho Alveolar Lavage (BAL) inflammatory cell counting.
Several groups of mice were treated with different antibodies and Dexamethasone and compared to the mice subjected to LPS only.
BALB/c female mice from Harlan (France) were used in the study. Mice weight was around 20 g.
Mice were anesthetized by isoflurane inhalation. During the breathing, LPS was instilled intranasally. After 24 h, mice were anesthetized intra-peritoneally (IP) and Broncho Alveolar Lavage procedure was performed. Mice were anesthetized by injection of anaesthetic solution of 0.1 mL per 10 g of the mouse weight. The anaesthetic solution was composed of 18 ml 0.9% NaCl, 0.5 mL xylazine (5 mg/Kg) and 1.5 mL ketamine (75 mg/Kg).
The trachea was exposed through midline incision and canulated (with a mice catheter). BAL was performed twice using 1 mL of sterile PBS buffer. […] The cells were counted using a cell counter (Vet abc, France). […]
For all groups, BAL was performed 24 hours after LPS administration and cell counts were measured.
The results were analyzed using Student t-test. […]

[3] = tested on: mouse CIA model (DBA1/J mice); assay: Mouse collagen induced arthritis (CIA) model, preventative protocol; conditions: 10 mg/kg, 3x week, i.p., day 21 to day 46
Method: as §1
One day before the experiment, CII solution (2 mg/mL) was prepared with 0.05 M acetic acid and stored at 4° C. Just before the immunization, equal volumes of adjuvant […] and CII were mixed by a homogenizer in a pre-cooled glass bottle in an ice water bath. Extra adjuvant and prolonged homogenization may be required if an emulsion is not formed. 0.1 mL of the emulsion was injected intradermally at the base of the tail of each mouse on day 1, a second booster intradermal injection (CII solution at 2 mg/mL in […] 0.1 mLemulsion) was performed on day 21. […]
as §2

B1: MOR12762: anti-mouse IL17C HuCAL antibody; CDRs SEQ ID NO: 171-176, VL 177, VH 178; human/mouse chimeric IgG2a (antibody, V domains shown)
VH: EVQLVQSGAEVKKPGESLKISCKGSGYSFNNYWIAWVRQMPGKGLEWMGFIYPSNSATQYSPSFQGQVTISADKSISTAYLQWSSLKASDTAMYYCARDNEYSDSYFDVWGQGTLVTVSS
VL: DIVLTQSPATLSLSPGERATLSCRASQIVSSYLAWYQQKPGQAPRLLIYDASSRATGIPARFSGSGSGTDFTLTISSLEPEDFAVYYCQQSEQVPTTFGQGTKVEIKRT
modifications: mouse IgG2a constant regions; VH; VL
inhibition of inflammation / disease progression (clinical score) [1]: significant inhibition
inhibition of the recruitment of inflammatory cells into the BALF [2]: inhibited significantly
inhibition of bone degradation / bone erosion (Larsen score) [3]: significant inhibition
inhibition of inflammation (clinical score) [3]: significant inhibition
